Source: the supplement of paper PMC10567573

B1: NCK2 (parent)
chain: YVERKNSLKKGSLVKNLKDTLGLG

Variants of: B1
Experiment: protein stability index of a GFP-peptide fusion (GPS, HEK-293T) (PSI 1-6); higher = more stable
Conditions: c terminus: a fixed tail appended
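Also: lentivirally expressed fusions sorted by FACS into six bins by GFP to DsRed ratio, PSI derived from sequencing read proportions per bin multiplied by bin number.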

| Variant | protein stability index |
| --- | --- |
| K5G | 2.34 |
| V2L | 2.71 |
| E3K | 2.23 |
| G22M | 2.23 |
| D19K | 1.91 |
| L13H | 2.29 |
| D19I | 2.01 |
| R4G | 2.19 |
| Y1L | 3.28 |
| L21F | 2.18 |
| S7W | 3.27 |
| D19Q | 2.21 |
| V14C | 2.08 |
| K18G | 1.84 |
| D19T | 1.83 |
| G24T | 2.36 |
| E3Y | 1.63 |
| L23M | 2.7 |
| V2F | 2.44 |
| T20Y | 1.88 |
| L17D | 2.92 |
| L21M | 2.64 |
| R4W | 1.57 |
| L8W | 1.89 |

| Variant | protein stability index |
| --- | --- |
| K10S | 2.31 |
| T20G | 2.45 |
| K9W | 2.37 |
| V2A | 3.09 |
| T20H | 1.75 |
| T20V | 1.97 |
| N16W | 1.68 |
| Y1A | 3.59 |
| V2E | 4.17 |
| K9N | 2.32 |
| V14W | 1.89 |
| S12Q | 2.27 |
| K10C | 2.29 |
| K18Y | 2.41 |
| D19A | 2 |
| N6R | 2.25 |
| L23H | 2.02 |
| K15D | 2.7 |
| G22L | 1.51 |
| N16P | 2.61 |
| S7H | 2.02 |
| K18S | 2.07 |
| K15L | 2.36 |
| L17Q | 3.16 |

| Variant | protein stability index |
| --- | --- |
| K5I | 1.99 |
| S12K | 2.71 |
| L13S | 2.54 |
| G24Y | 1.67 |
| G24C | 2.2 |
| N6I | 2.39 |
| V14I | 2.35 |
| Y1K | 3.86 |
| L8C | 2.41 |
| L23E | 2.86 |
| V2I | 2.84 |
| K5N | 2.4 |
| G11W | 1.93 |
| S7N | 2.07 |
| L21C | 2.71 |
| N6K | 2.67 |
| L8R | 2.09 |
| G11P | 2.11 |
| L8F | 2.33 |
| N6V | 1.58 |
| K9Q | 2.32 |
| G11I | 1.68 |
| L21G | 2.49 |
| L13M | 2.22 |

| Variant | protein stability index |
| --- | --- |
| S7T | 2.16 |
| E3H | 1.72 |
| G24H | 2.43 |
| S7G | 1.99 |
| S7V | 1.94 |
| K18A | 2.25 |
| S12D | 2.79 |
| L8M | 2.57 |
| K15Q | 2 |
| S7L | 2.43 |
| L8V | 2.16 |
| R4I | 1.81 |
| R4L | 1.57 |
| L13W | 2.04 |
| S7K | 2.84 |
| T20E | 2.17 |
| L23P | 2.97 |
| K9H | 2.1 |
| V14Y | 1.98 |
| L17M | 2.78 |
| K10G | 1.93 |
| K18V | 2.42 |
| N16C | 2.1 |
| R4F | 1.52 |

| Variant | protein stability index |
| --- | --- |
| V2H | 2.66 |
| D19N | 2.84 |
| T20F | 1.75 |
| G11D | 2.44 |
| L21Q | 2.3 |
| K5M | 1.79 |
| D19F | 2.24 |
| L13G | 2.41 |
| N16S | 2.16 |
| G11H | 2.02 |
| G11E | 2.72 |
| V14T | 2.66 |
| Y1F | 1.81 |
| K5Q | 2.39 |
| R4S | 2.26 |
| G11Q | 3.13 |
| G24W | 1.97 |
| V14N | 2.44 |
| N6A | 2.24 |
| K15Y | 1.91 |
| L17H | 2.34 |
| L23Y | 1.94 |
| S12A | 2.22 |
| G24D | 2.8 |

| Variant | protein stability index |
| --- | --- |
| N6W | 2.32 |
| Y1D | 4.13 |
| K10N | 1.83 |
| V14H | 1.84 |
| S12L | 1.64 |
| V2Q | 3.39 |
| E3P | 1.65 |
| L23T | 2.64 |
| E3A | 1.66 |
| L17P | 2.13 |
| G24S | 2.58 |
| R4K | 2.46 |
| L23V | 2.57 |
| K5P | 1.89 |
| L17F | 1.87 |
| K18P | 2.56 |
| L21V | 2.25 |
| R4H | 2.6 |
| S7F | 2.66 |
| G22Y | 2.33 |
| E3N | 2.04 |
| L17V | 2.8 |
| L17R | 2.58 |
| L13R | 1.99 |

| Variant | protein stability index |
| --- | --- |
| V14D | 2.84 |
| K5S | 2.24 |
| N6M | 2.29 |
| L8A | 2.42 |
| S7R | 2.22 |
| L17I | 2.43 |
| V2T | 3.44 |
| K9P | 2.05 |
| V2S | 2.94 |
| K10W | 1.78 |
| K15P | 1.99 |
| K5T | 2.02 |
| G22K | 2.09 |
| K10Q | 2.59 |
| K18L | 2.08 |
| L21W | 2.12 |
| K5D | 2.26 |
| L23A | 2.96 |
| S12I | 2.46 |
| S12W | 2.17 |
| K18T | 2.65 |
| S12V | 2.38 |
| V2P | 3.81 |
